Assay results from patent US20060003399A1, “High throughput actin polymerization assay” (Cytokinetics, Inc., priority 2004, published 2006).
Entries after “also recorded” stand apart in the source; their conditions may differ.

Key:
full length human WASP = target: T1, full length human WASP (Homo sapiens, UniProt P42768); assay: Pyrene-actin polymerization assay: activation of full length WASP by upstream regulators; assay type: biochemical; settings: for activation of FL-WASP (in words): Arp2/3 4.0 nM, actin 3.5 μM; for Barbed ends % of max.** (WASP): after subtracting baseline (WASP without activators); for Barbed ends, nM* (WASP): total concentration of Arp2/3 complex in the assay is 4.2 nM; for EC50: activation of WASP; for acceleration of actin polymerization by the activator: FL-WASP
T1 construct: Full length human WASP and N-WASP were TAP-tagged; Myc (N); made in house; host or cells: human 293 cells (Freestyle 293-F), transient transfection
T1 sequence (P42768 1-502): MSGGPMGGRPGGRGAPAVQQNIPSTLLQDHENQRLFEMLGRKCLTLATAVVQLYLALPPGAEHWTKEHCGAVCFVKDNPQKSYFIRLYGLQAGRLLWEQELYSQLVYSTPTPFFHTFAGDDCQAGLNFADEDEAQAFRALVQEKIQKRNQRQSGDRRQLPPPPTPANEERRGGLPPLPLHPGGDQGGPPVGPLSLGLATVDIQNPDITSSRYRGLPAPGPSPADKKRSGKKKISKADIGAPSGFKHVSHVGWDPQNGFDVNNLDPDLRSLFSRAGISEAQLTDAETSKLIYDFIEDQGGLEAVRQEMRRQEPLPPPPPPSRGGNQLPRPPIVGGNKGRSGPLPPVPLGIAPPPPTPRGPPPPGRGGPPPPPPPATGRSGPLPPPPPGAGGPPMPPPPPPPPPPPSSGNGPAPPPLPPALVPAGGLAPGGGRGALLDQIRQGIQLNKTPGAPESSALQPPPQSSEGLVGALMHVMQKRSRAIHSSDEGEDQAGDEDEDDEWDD
Protocol: (§1) Samples containing candidate agents (individually or as mixtures) are placed into wells on a multi-well plate. Mix 1 is added to each of the wells and mixed with the candidate agent. A sample of Mix 2 is then introduced into each well and the resulting mixture thoroughly mixed. Typically, Mix 1 and Mix 2 are mixed in 1:1 ratio (e.g., 50 μl each of Mix 1 and Mix 2).
(§2) Actin polymerization is measured as a function of time by exciting pyrene at 365 nm and by detecting an increase in fluorescence emission at 407 nm, or by exciting acrylodan at 405 nm and by detecting an increase in fluorescence emission at 460 nm. The change in fluorescence over time is utilized to determine a fluorescence parameter (e.g., maximal velocity, time to half maximal fluorescence intensity, or area under the curve of a plot of fluorescence versus time; see e.g., FIGS. 5A-5F).
(§3) Full length human WASP and N-WASP were TAP-tagged (Rigaut, et al. (1999) Nat. Biotechnology 17:1030, which is incorporated herein by reference in its entirety for all purposes) at the C-terminus (see, also Examples 2 and 3). The recombinant WASP and N-WASP were expressed in human 293 cells and then purified using a TAP-tag protocol as described in Example 6.
Arp2/3 was purified as described in Example 1. […]
The effect of PIP2 on the ability of upstream regulators to regulate FL-WASP was evaluated in a fifth set of experiments. The results are depicted in graphical format in FIG. 11.

full length human N-WASP = target: T2, full length human N-WASP (Homo sapiens, UniProt O00401); assay: Pyrene-actin polymerization assay: activation of full length N-WASP by upstream regulators; assay type: biochemical; settings: for activation of FL-N-WASP (in words): Arp2/3 4.0 nM, actin 3.5 μM; for Barbed ends % of max.** (N-WASP): after subtracting baseline (WASP without activators); for Barbed ends, nM* (N-WASP): total concentration of Arp2/3 complex in the assay is 4.2 nM; for EC50: activation of N-WASP
T2 construct: Full length human WASP and N-WASP were TAP-tagged; Myc (N); made in house; host or cells: human 293 cells (Freestyle 293-F), transient transfection; insert amplified from HeLa total RNA
T2 sequence (O00401 whole entry Y76H/A201G/F223S/S242L/D248E/S252L/N296S/A333E): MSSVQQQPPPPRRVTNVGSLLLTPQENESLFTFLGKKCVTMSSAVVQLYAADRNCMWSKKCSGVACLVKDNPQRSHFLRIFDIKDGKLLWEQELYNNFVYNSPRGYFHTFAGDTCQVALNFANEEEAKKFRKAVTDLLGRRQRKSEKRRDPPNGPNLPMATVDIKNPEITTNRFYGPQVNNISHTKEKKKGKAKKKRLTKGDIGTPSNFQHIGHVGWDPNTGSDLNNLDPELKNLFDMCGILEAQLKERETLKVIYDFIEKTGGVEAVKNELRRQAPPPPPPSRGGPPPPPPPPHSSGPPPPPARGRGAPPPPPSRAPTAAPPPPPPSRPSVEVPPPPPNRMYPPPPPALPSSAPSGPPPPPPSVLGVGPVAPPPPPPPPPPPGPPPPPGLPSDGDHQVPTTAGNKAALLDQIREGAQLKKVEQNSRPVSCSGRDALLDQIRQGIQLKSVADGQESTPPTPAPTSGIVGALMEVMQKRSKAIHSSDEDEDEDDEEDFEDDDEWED
Protocol: as §1, §2, §3
(§4) Arp2/3 was purified as described in Example 1.
Arp2/3 and actin concentrations were as described for the third experiment.
Another set of experiments similar to the fifth set were conducted using FL-N-WASP.

Arp2/3 = assay: Activities of WASP/N-WASP proteins (Table 4); assay type: biochemical
Description: The term “variant” or “analogue” generally refers to proteins that are functional equivalents to a native sequence that have similar amino acid sequences and retain, to some extent, one of the activities of the corresponding native protein. Variants/analogues include fragments that retain one or more activities of the corresponding native protein. Examples of WASP and N-WASP activity include, but are not limited to, capacity to: 1) bind Arp2/3 and actin; 2) activate the actin nucleation activity of Arp2/3 (descriptions of assays to detect nucleation activity are provided below); 3) bind an upstream regulator; 4) be regulated by one or more upstream regulators, thereby rendering the WASP or N-WASP protein able to activate the nucleation activity of Arp2/3; and 5) bind downstream regulators initiating signal transduction cascades. Some of the WASP and N-WASP proteins that are provided are able to recapitulate the full activity of WASP or N-WASP, which means that these proteins have all five of the activities just listed. […]
A third class of NPF proteins that can be utilized in some assays include WASP, N-WASP and SCAR proteins that include the WH1 domain but in which the PolyPro region is (e.g., deleted). A fourth class of NPF proteins that can be utilized in some assays are WASP, N-WASP and SCAR deletion mutants in which the PolyPro region is maintained but an N-terminal region (e.g., WH1 domain) is at least partially removed. Some proteins in this class are ones that include the B, CRIB/GBD (WASP and N-WASP), PolyPro and VCA domains, but in which some or all of the WH1 has been removed. One specific example is 98N-WASP, which includes amino acids 98-501 of SEQ ID NO:4. Another specific example is the 105WASP protein, which includes amino acids 105-501 of SEQ ID NO:2 (see FIG. 4B).
As indicated in this table, specific examples of fusion proteins that can be utilized include those that include a segment that encodes full-length WASP or N-WASP, including: Myc-WASP-TAP (SEQ ID NO:14); and Myc-N-WASP-TAP (SEQ ID NO: 16). Examples of fusion proteins that include a WASP or N-WASP deletion mutant domain include: GST-105WASP (SEQ ID NO:18); Myc-105WASP-TAP (SEQ ID NO:20); GST-tev-98N-WASP (SEQ ID NO:22); and Myc-98N-WASP-TAP (SEQ ID NO:24). The TAP tag in these particular fusion proteins has the general structure CBP-tev-ProtA (SEQ ID NO:36). Fusion proteins such as those listed in Table 4 can in some instances be utilized directly, or after one or both of the C- and N-terminal tags are removed. For example, the fusion proteins listed in Table 4 as having a TAP tag can be used once the TAP tag has been cleaved off and/or after the C-terminal tag has been removed.

Arp2/3 complex = target: T3, Arp2/3 complex; assay: Actin polymerization assay comparing FL-WASP/N-WASP and truncated forms of WASP; assay type: biochemical, human
T3 construct: from tissue
Protocol: 1. A cellular extract containing Arp2/3 complex was prepared from an Arp2/3 source such as human platelets (see, e.g., U.S. Provisional Application No. 60/578,969, filed Jun. 10, 2004; Welch and Mitchison (Meth. Enzymology 298:52-61,1988); and Higgs, H. N. et al. (Biochemistry 38:15212-15222, 1999), all of which are incorporated herein by reference in their entirety for all purposes).
as §1, §2, §4
In a second set of experiments, the ability of various truncated forms of WASP were compared to the activity of the full-length protein. […] FL-WASP, 105 WASP and the VCA (see Example 2) domain were tested. The results of these trials were plotted to obtain EC50 values. The results are provided in FIG. 8 and in the chart below.

[1] = Solubility of purified full-length WASP / N-WASP; assay type: physicochemical; settings: purified TAP-tag protein from 293 cells

RhoA: GTPase, GST-tev-RhoA (SEQ ID NO:30)
activation of FL-WASP (in words) (full length human WASP; FIG. 9): could not activate
activation of FL-N-WASP (in words) (full length human N-WASP; FIG. 10): could not activate

Nck2: upstream regulator, GST-tagged (SEQ ID NO:46)
relative potency as WASP activator (in words) (full length human WASP; FIG. 9): most powerful activators
dose dependence of WASP activation / barbed end concentration (in words) (full length human WASP; FIG. 9, inhibition at higher concentrations): bell shaped dependence; also recorded: inhibited
Barbed ends % of max.** (WASP) (full length human WASP): 50 % of max.
Barbed ends, nM* (WASP) (full length human WASP): 2.6 nM
EC50 (full length human WASP): 12 nM
activation of FL-N-WASP (in words) (full length human N-WASP; FIG. 10): can stimulate production of maximal concentration of barbed ends
relative potency as N-WASP activator (in words) (full length human N-WASP; FIG. 10, Rac1 vs Cdc42 in the absence of PIP2 vesicles): significantly better activator of N-WASP than WASP; also recorded: most powerful activators
dose dependence of N-WASP activation (in words) (full length human N-WASP; FIG. 10, inhibition at higher concentrations): bell shaped dose dependence curve; also recorded: inhibited
Barbed ends % of max.** (N-WASP) (full length human N-WASP; N-WASP): 78 % of max.
Barbed ends, nM* (N-WASP) (full length human N-WASP; N-WASP): 3.5 nM
EC50 (full length human N-WASP): 7 nM

Myc-N-WASP-TAP: fusion protein of full-length N-WASP (SEQ ID NO:16)
Activate Arp2/3? (Arp2/3): Yes
Regulated By Which Upstream Regulators? (Arp2/3): Cdc42, PIP2, Nck and Rac1

phosphatidylinositol-4,5-bisphosphate [PIP2, reference compound]
effect of PIP2 on FL-WASP (full length human WASP; in the absence of small GTPases or Nck, FIG. 11): no effect; also recorded: minimal, if any, effect
effect of PIP2 on WASP stimulated actin polymerization (full length human WASP; in the presence of small GTPases or Nck, FIG. 11): strong inhibitory effect
effect of PIP2 on Nck stimulated activation of N-WASP (full length human N-WASP; Nck present, FIG. 12): inhibited; also recorded: inhibitory effect
effect of PIP2 on N-WASP activation by Rac1 or Cdc42 (full length human N-WASP; small GTPases present, FIG. 12): marked synergistic effect; also recorded: synergistically; also recorded: marked synergestic effect

RhoC: GTPase, GST-tev-RhoC (SEQ ID NO:28)
activation of FL-WASP (in words) (full length human WASP; FIG. 9): could not activate
activation of FL-N-WASP (in words) (full length human N-WASP; FIG. 10): could not activate

N-WASP VCA Domain: VCA domain of N-WASP (SEQ ID NO:8)
Activate Arp2/3? (Arp2/3): Yes
Regulated By Which Upstream Regulators? (Arp2/3): None

FL-WASP: full length human WASP (SEQ ID NO:2), nucleation promoting factor
potency as Arp2/3 complex activator compared with truncated derivatives (in words) (Arp2/3 complex): more potent Arp2/3 complex activator than certain truncated derivatives
concentration that stimulated production of maximal concentration of barbed ends (Arp2/3 complex; 500 nM Cdc42, 2.5 nm Arp2/3 complex, 3.5 μM actin): 3 nM
activity of FL-WASP relative to 105 WASP (Arp2/3 complex; 500 nM Cdc42, 2.5 nm Arp2/3 complex, 3.5 μM actin, FIG. 8): approximately 20 times
stimulation of actin polymerization by the protein alone (in words) (Arp2/3 complex; without activators, FIG. 7): weakly stimulate actin polymerization
Activate Arp2/3? (Arp2/3): Yes
Regulated By Which Upstream Regulators? (Arp2/3): Cdc42, PIP2, Nck and Rac1
solubility (in words) [1]: completely soluble

Cdc42: Rho-family GTPase upstream regulator, GST-tagged (SEQ ID NO:26)
activation of FL-WASP (in words) (full length human WASP; FIG. 9): fully activates FL-WASP; also recorded: can fully activate FL-WASP
relative potency as WASP activator (in words) (full length human WASP; FIG. 9): more effective on WASP-stimulated actin nucleation by Arp2/3 complex than on N-WASP-stimulated actin nucleation
acceleration of actin polymerization by the activator (full length human WASP; FIG. 7): 13 fold
acceleration of actin polymerization by the activator (full length human WASP; FIG. 7 legend): 13 times
Barbed ends % of max.** (WASP) (full length human WASP): 87 % of max.
Barbed ends, nM* (WASP) (full length human WASP): 3.8 nM
EC50 (full length human WASP): 16 nM
acceleration of actin polymerization by the activator (full length human N-WASP; FL-N-WASP, FIG. 7 legend): 13 times
acceleration of actin polymerization by the activator (full length human N-WASP; N-WASP, FIG. 7): 13 fold
Barbed ends % of max.** (N-WASP) (full length human N-WASP; N-WASP): 9 % of max.
Barbed ends, nM* (N-WASP) (full length human N-WASP; N-WASP): 1.3 nM
EC50 (full length human N-WASP): 287 nM

Myc-WASP-TAP: fusion protein of full-length WASP (SEQ ID NO:14)
Activate Arp2/3? (Arp2/3): Yes
Regulated By Which Upstream Regulators? (Arp2/3): Cdc42, PIP2, Nck and Rac1
